From patent US20230159934, “INSULIN RECEPTOR APTAMER AND PHARMACEUTICAL COMPOSITION FOR TREATING DIABETES COMPRISING THE SAME” (APTAMER SCIENCES INC., published 2023)

How the values were obtained:
Conditions in all cases: chain copies: 2
[1] = target: T1, Insulin receptor (hIR) expressed on Rat-1/hIR cells (Homo sapiens, UniProt P06213;P06213 P06213:28-758,P06213:763-1382); assay: cell_activity; IR phosphorylation, 200 nM, Rat-1/hIR; Table 5 gives 0.83
Method: (§1) To identify the insulin receptor phosphorylation activity of the chemical variant samples of A48m prepared in Example 2-1, an experiment was performed as follows. Particularly, Rat-1/hIR cells were seeded on a 12-well plates at a density of 10⁵ cells per well and cultured overnight in a high glucose Dulbecco's modified Eagle's medium (DMEM) supplemented with 10% fetal bovine serum (FBS). The cells untreated with the aptamer samples were incubated in the DMEM not including FBS for 3 hours, washed three times with 1×PBS, and incubated in a Krebs-Ringer HEPES buffer [25 mM HEPES (pH 7.4), 120 mM NaCl, 5 mM KCl, 1.2 mM MgSO₄, 1.3 mM CaCl₂, and 1.3 mM KH₂PO₄] for 1 hour. The aptamer samples, which were the chemical variants of A48m prepared in Example 2-1, were heated at 95° C. for 5 minutes and cooled at room temperature such that a three-dimensional structure of each aptamer was reconstructed. The aptamers were dissolved in the Krebs-Ringer HEPES buffer for preparation.
(§2) The aptamer samples were added to each well of the 12-well plate and incubated for 1 hour. After 1 hour, the plate was washed three times with 1×PBS and the cells were isolated from the plate and lysed with a lysis buffer. The cell lysates were centrifuged at 4° C. at 14,000 rpm for 15 minutes to isolate proteins. […] Intensities of bands formed on the membrane were quantified via comparison with A48m.

[2] = target: T1, Insulin receptor (hIR) expressed on …; assay: cell_activity; IR phosphorylation, 200 nM, Rat-1/hIR
Method: as §1
The aptamer samples were added to each well of the 12-well plate and incubated for 1 hour. After 1 hour, the plate was washed three times with 1×PBS and the cells were isolated from the plate and lysed with a lysis buffer. The cell lysates were centrifuged at 4° C. at 14,000 rpm for 15 minutes to isolate proteins. The isolated samples were heated at 100° C. for 5 minutes with a 5× sample buffer and slowly cooled at room temperature to prepare western blot samples. The prepared samples were subjected to electrophoresis on 4%-12% SDS-PAGE for 1 hour and 30 minutes and transferred to a nitrocellulose membrane for 1 hour and 30 minutes. Then, the membrane was blocked at room temperature for 40 minutes in a blocking buffer solution (1×PBST, 3% skim milk) and incubated for 1 hour at room temperature with a primary antibody [anti-phosphor-IR (10C3), Santa Cruz Biotechnology or anti-β-actin (D6A8), Cell Signaling Technology] diluted in a blocking buffer at 1:500 or 1:1000. The membrane was washed three times with 1×PBS and incubated for 1 hour at room temperature with a secondary binding antibody diluted in the blocking buffer at 1:20000, and washed three times with 1×PBST. An ECL solution was sprayed onto the membrane, followed by incubation at room temperature for 1 minute and exposure to x-rays. Intensities of bands formed on the membrane were quantified via comparison with A48m.

[3] = target: T1, Insulin receptor (hIR) expressed on …; assay: cell_activity; IR phosphorylation, 200 nM, Rat-1/hIR; Table 5 gives 0.95
Method: as §1, §2

[4] = target: T1, Insulin receptor (hIR) expressed on …; assay: cell_activity; IR phosphorylation, 200 nM, Rat-1/hIR; Table 5 gives 0.77
Method: as §1, §2

[5] = target: T1, Insulin receptor (hIR) expressed on …; assay: cell_activity; IR phosphorylation reference, 200 nM, Rat-1/hIR
Method: as §1, §2

[6] = target: T1, Insulin receptor (hIR) expressed on …; assay: cell_activity; IR phosphorylation, 200 nM, Rat-1/hIR; Table 5 gives 0.9
Method: as §1, §2

[7] = target: T2, Insulin receptor on differentiated 3T3-L1 adipocytes (UniProt P15208;P15208 P15208:28-748,P15208:753-1372); assay: cell_activity; lipolysis (glycerol release) inhibition in 3T3-L1 adipocytes; insulin 2.07 nM
Method: To identify the effect of the chemically optimized A48m (A48m combi 2 to 5) on lipolysis inhibition as insulin receptor aptamers, an amount of glycerol released in a lipolysis process was measured by using completely differentiated 3T3-L1 adipocytes.
Particularly, for serum deficiency, the completely differentiated 3T3-L1 adipocytes were treated with DMEM with no FBS for 3 hours and treated with a Krebs-Ringer HEPES buffer solution for 1 hour to induce lipolysis caused by deficiency of glucose. The adipocytes were treated respectively with insulin or the A48m combi 3 aptamer in concentrations of 0.93 nM, 2.59 nM, 7.26 nM, 20.34 nM, 56.94 nM, 159.44 nM, 446.43 nM, 1250 nM, and 3500 nM for 4 hours, and then a buffer used to treat the cells was collected. 20 μl of the collected buffer was added to a 96-well plate and 200 μl of a free glycerol reagent (Sigma F6428) was added thereto, followed by reaction at room temperature for 30 minutes. Then, concentration-dependent color development of glycerol released from the cells was measured by measuring absorbance at 540 nm.

[8] = target: T2, Insulin receptor on differentiated …; assay: cell_activity; glucose uptake in differentiated 3T3-L1 adipocytes; insulin 9.6 nM
Method: For serum deficiency, the completely differentiated 3T3-L1 adipocytes were treated with DMEM with no FBS for 3 hours and treated with a Krebs-Ringer HEPES buffer solution for 1 hour. Subsequently, the adipocytes were treated respectively with insulin or the A48m combi 3 aptamer in concentrations of 1.6 nM, 8 nM, 40 nM, 200 nM, and 1000 nM for a given time and then treated with 2-deoxy[14C]glucose (0.1 μCi/ml) for 10 minutes. The resultant was washed three times with PBS supplemented with 20 mM glucose and the cells were dissolved using a solution including 0.5 N NaOH and 1% SDS. An amount of 2-Deoxy-D-glucose absorbed into the cells was observed using a liquid scintillation counter.

T1 sequence (P06213 28-758, chain 1 of 2): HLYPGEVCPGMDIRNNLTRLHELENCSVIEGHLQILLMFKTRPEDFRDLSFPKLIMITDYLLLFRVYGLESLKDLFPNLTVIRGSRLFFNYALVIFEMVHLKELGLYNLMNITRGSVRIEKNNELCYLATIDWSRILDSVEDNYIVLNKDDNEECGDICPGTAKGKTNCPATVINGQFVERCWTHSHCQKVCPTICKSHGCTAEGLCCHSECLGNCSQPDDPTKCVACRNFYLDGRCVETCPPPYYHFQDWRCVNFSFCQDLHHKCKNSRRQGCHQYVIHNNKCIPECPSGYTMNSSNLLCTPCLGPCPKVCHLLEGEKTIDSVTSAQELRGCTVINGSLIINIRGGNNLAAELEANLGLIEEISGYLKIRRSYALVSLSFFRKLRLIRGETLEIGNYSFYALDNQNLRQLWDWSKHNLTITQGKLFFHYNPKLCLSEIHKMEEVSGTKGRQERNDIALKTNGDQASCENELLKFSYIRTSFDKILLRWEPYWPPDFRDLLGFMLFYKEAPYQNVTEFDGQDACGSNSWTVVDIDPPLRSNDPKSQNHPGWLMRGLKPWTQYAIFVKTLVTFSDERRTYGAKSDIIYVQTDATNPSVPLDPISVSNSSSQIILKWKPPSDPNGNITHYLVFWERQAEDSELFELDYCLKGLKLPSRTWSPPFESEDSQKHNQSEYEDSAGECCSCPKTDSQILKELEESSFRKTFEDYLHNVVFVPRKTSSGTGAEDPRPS
T1 sequence (P06213 763-1382, chain 2 of 2): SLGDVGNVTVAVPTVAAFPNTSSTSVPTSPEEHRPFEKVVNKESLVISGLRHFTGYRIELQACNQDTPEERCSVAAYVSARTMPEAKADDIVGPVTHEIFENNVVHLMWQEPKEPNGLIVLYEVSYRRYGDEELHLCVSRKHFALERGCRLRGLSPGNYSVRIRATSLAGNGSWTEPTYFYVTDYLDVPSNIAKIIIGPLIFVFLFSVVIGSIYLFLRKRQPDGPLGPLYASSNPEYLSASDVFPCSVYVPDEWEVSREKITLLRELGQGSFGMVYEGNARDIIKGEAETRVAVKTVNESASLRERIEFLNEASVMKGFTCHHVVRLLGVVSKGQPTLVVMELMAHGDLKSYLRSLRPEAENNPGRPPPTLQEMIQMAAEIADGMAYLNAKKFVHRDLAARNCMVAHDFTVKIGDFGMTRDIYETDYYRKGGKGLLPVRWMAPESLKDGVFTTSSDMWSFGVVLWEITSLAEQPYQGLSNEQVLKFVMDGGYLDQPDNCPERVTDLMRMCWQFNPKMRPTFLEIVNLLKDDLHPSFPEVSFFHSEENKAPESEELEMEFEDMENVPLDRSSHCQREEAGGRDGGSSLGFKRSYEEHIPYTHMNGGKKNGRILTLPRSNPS
T2 sequence (P15208 28-748, chain 1 of 2): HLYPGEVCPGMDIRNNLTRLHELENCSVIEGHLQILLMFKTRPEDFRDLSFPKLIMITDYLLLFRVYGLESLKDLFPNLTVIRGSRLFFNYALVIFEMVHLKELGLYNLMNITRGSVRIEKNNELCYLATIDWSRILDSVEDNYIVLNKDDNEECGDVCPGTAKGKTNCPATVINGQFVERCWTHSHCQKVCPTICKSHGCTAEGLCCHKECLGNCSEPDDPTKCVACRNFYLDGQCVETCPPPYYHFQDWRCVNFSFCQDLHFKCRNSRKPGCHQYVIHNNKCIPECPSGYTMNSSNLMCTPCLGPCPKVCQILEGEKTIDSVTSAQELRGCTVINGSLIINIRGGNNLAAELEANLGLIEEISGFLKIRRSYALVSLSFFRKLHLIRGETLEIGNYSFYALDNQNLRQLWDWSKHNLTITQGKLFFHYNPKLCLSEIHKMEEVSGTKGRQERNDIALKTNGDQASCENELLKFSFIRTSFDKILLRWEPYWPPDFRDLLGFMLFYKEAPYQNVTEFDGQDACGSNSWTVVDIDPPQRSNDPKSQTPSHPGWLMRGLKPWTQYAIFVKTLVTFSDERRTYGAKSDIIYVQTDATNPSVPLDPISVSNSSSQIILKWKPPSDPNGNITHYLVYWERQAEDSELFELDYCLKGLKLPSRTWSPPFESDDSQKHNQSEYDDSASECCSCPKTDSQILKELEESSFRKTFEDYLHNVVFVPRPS
T2 sequence (P15208 753-1372, chain 2 of 2): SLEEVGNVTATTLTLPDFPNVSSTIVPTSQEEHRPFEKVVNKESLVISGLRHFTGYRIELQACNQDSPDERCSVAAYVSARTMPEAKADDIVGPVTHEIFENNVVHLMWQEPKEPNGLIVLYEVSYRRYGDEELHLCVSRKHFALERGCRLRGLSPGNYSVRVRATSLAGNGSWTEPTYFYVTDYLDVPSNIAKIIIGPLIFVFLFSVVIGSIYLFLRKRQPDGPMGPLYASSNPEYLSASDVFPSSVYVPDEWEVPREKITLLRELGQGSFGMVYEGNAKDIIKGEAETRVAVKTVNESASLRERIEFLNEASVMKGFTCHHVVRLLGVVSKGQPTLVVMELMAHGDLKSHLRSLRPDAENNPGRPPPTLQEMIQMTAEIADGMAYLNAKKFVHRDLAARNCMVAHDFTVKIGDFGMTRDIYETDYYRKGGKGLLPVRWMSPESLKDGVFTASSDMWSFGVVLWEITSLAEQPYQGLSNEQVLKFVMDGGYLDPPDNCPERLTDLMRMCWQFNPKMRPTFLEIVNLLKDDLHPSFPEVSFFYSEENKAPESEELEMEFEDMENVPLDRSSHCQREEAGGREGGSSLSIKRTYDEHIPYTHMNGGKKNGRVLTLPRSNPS

B1: A48m P10Z (ssDNA)
DNA: CGCCTGGTGTTCTAGACGACCTATAGGTTAGGC
modifications: P = naphthyl-dU; benzyl-dU at position 10
With B1 the activity [1] was 2.7 fold of A48m.

B2: A48m G18 C3-linker (ssDNA)
DNA: CGCCTGGTGTTCTAGACGACCTATAGGTTAGGC
modifications: P = naphthyl-dU; C3 linker at position 18
For B2, the activity [2] was 1.16 fold of A48m.

B3: A48m P28Z (ssDNA)
DNA: CGCCTGGTGTTCTAGACGACCTATAGGTTAGGC
modifications: P = naphthyl-dU; benzyl-dU at position 28
For B3, the activity [3] was 1.09 fold of A48m.

B4: A48m P29Z (ssDNA)
DNA: CGCCTGGTGTTCTAGACGACCTATAGGTTAGGC
modifications: P = naphthyl-dU; benzyl-dU at position 29
For B4, the activity [4] was 0.9 fold of A48m.

B5: A48m G27 2'-F (ssDNA)
DNA: CGCCTGGTGTTCTAGACGACCTATAGGTTAGGC
modifications: P = naphthyl-dU; 2'-F at position 27
With B5 the activity [2] was 1.11 fold of A48m.

B6: A48m G2 2'-OMe (ssDNA)
DNA: CGCCTGGTGTTCTAGACGACCTATAGGTTAGGC
modifications: P = naphthyl-dU; 2'-OMe at position 2
With B6 the activity [2] was 1.28 fold of A48m.

B7: A48m C12 C3-linker (ssDNA)
DNA: CGCCTGGTGTTCTAGACGACCTATAGGTTAGGC
modifications: P = naphthyl-dU; C3 linker at position 12
With B7 the activity [2] was 1.7 fold of A48m.

B8: A48m (A48 seq 1-19) (ssDNA)
DNA: CGCCTGGTGTTCTAGACGACCTATAGGTTAGGC
modifications: P (n) = naphthyl-dU
For B8, the activity [5] was 1 fold of A48m.

B9: A48m P13Z (ssDNA)
DNA: CGCCTGGTGTTCTAGACGACCTATAGGTTAGGC
modifications: P = naphthyl-dU; benzyl-dU at position 13
For B9, the activity [6] was 1 fold of A48m.

B10: A48m combi 3 (ssDNA)
DNA: CCUGGTGTTTAGACGACCTATAGGTTAGG
modifications: CmeCmeUmeGGPGZPLPAmeGAmeCfGAmeCfCmePAmePAGGmePPAmeGmeGme-idT; me = 2'-OMe, f = 2'-F, P = naphthyl-dU, Z = benzyl-dU, L = C3 linker, 3' idT [2'-OMe at 1,2,3,11,13,16,18,20,24,27,28,29; 2'-F at 14,17; naphthyl-dU at 6,9,10,19,21,25,26; benzyl-dU at 8; C3 linker (left out) between 9 and 10; 3' idT (left out) after 29]
B10 was tested, and the IC50 [7] was 11 nM and the EC50 [8] was 16.5 nM.
